One assay addresses HLA-B*40:01. The experiment in a line: IEDB peptide-MHC binding, purified MHC/competitive/radioactivity; filed as Kd, often an IC50 or EC50 that approximates it; ≥ and ≤ were set here for values at or beyond the usual limits of such assays.
The target in a further assay is HLA-B*44:02. Described as above. The conditions noted are these: source organism: Dengue virus 1 Brazil/97-11/1997.
For the next assay, the target named is HLA-B*44:03. Described as above. The conditions noted are these: source organism: Dengue virus 1 Brazil/97-11/1997.
A further assay concerns the target HLA-A*30:01. The assay is described as above. Conditions: source organism: Vaccinia virus WR.
In assay [1] the target is HLA-A*02:01. The experiment in a line: IEDB peptide-MHC binding, purified MHC/competitive/fluorescence; ≥ and ≤ were set here for values at or beyond the usual limits of such assays.
A further assay concerns the target HLA-A*32:01. The experiment in a line: IEDB peptide-MHC binding, purified MHC/competitive/radioactivity; filed as Kd, often an IC50 or EC50 that approximates it; ≥ and ≤ were set here for values at or beyond the usual limits of such assays.
The target in assay [2] is HLA-A*02:01. The experiment in a line: IEDB peptide-MHC binding, purified MHC/direct/fluorescence; filed as Kd, often an IC50 or EC50 that approximates it; ≥ and ≤ were set here for values at or beyond the usual limits of such assays.
In the next assay the target is HLA-A*69:01. Described as above.
The next assay addresses HLA-B*08:01. The experiment in a line: IEDB peptide-MHC binding, purified MHC/competitive/radioactivity; filed as Kd, often an IC50 or EC50 that approximates it; ≥ and ≤ were set here for values at or beyond the usual limits of such assays.
Assay [3] has as its target HLA-A*03:01. The experiment in a line: IEDB peptide-MHC binding, purified MHC/direct/fluorescence; filed as Kd, often an IC50 or EC50 that approximates it; ≥ and ≤ were set here for values at or beyond the usual limits of such assays. The conditions noted are these: source organism: Pasteurella multocida.
The next assay addresses HLA-B*15:01. The description is as above. The conditions noted are these: source organism: Pasteurella multocida.
The target in a further assay is HLA-B*58:01. The assay is described as above. Conditions: source organism: Pasteurella multocida.
For another assay, the target named is HLA-A*01:01. The assay is described as follows: IEDB peptide-MHC binding, purified MHC/competitive/radioactivity; filed as Kd, often an IC50 or EC50 that approximates it; ≥ and ≤ were set here for values at or beyond the usual limits of such assays.
For assay [4], the target named is HLA-A*03:01. The description is as above. Conditions: source organism: SARS coronavirus Tor2.
For a further assay, the target named is HLA-A*11:01. The assay is described as above. The conditions noted are these: source organism: SARS coronavirus Tor2.
In the next assay the target is HLA-A*23:01. The description is as above.
The target of a further assay is HLA-A*24:02. The description is as above.
For another assay, the target named is HLA-A*26:01. Described as above.
The target in the next assay is HLA-A*29:02. Described as above.
In another assay the target is HLA-A*30:02. The assay is described as above.
The target in another assay is HLA-A*31:01. The assay is described as above. Conditions: source organism: SARS coronavirus Tor2.
For a further assay, the target named is HLA-A*33:01. The description is as above. Conditions: source organism: SARS coronavirus Tor2.
The target in another assay is HLA-A*68:01. The description is as above. Conditions: source organism: SARS coronavirus Tor2.
[5] abbreviates: source organism: Dengue virus 1 Brazil/97-11/1997.
Where [6] appears, read: source organism: Zaire ebolavirus.
The mark [7] stands for this setting: source organism: Vaccinia virus WR.
Setting [8] is: source organism: Vibrio vulnificus YJ016.
Where [9] appears, read: source organism: Dengue virus 4 Philippines/H241/1956.
Where [10] appears, read: source organism: Rickettsia conorii.
[11] abbreviates: source organism: SARS coronavirus Tor2.
Where [12] appears, read: source organism: Dengue virus 3 Martinique/1243/1999.
The mark [13] stands for this setting: source organism: Lassa virus Josiah.

A value given as a limit tells only on which side of the number the result lay.

Results on 38 sequences are retold here after the Immune Epitope Database (IEDB).

On to SEFNTYKRSG, for which the figures for the Kd with HLA-B*40:01 (setting [5]), with HLA-B*44:02 and in the assay with HLA-B*44:03 were 8760 nM, 2170 nM and 7050 nM, respectively.
As to VVKATYLLK, the equilibrium dissociation constant (Kd) – broadly, the equilibrium constant for the complex coming apart – in the assay with HLA-A*30:01 came out at 0.32 nM.
As for LDISEATQV, the IC50 (as a rule, the midpoint of a concentration-inhibition curve) with HLA-A*02:01 [1] (setting [6]) is no less than 72600 nM.
As to TMFKIVYSL, in the assay with HLA-A*32:01 (setting [7]), the Kd came to 0.915 nM.
Sequence ELDHLGLDD yielded an IC50 with HLA-A*02:01 [1] (setting [6]) of no less than 513000 nM.
As to SLGGHTVWQ, the Kd in the assay with HLA-A*02:01 [2] (setting [8]) is 8000 nM; in the assay with HLA-A*69:01 (setting [8]) it was no less than 20000 nM.
As for EEEEQTLTI, the Kd with HLA-B*40:01 (source organism: Dengue virus 2 Jamaica/1409/1983) turned out to be 103 nM.
On to TGPCAGDFA, for which the IC50 in the assay with HLA-A*02:01 [1] (setting [6]) is no less than 112000 nM.
For HTILYNNTI, in the assay with HLA-A*32:01 (setting [7]), the Kd is 1.88 nM.
As for SLREISNIV, in the assay with HLA-B*08:01 (setting [7]), the Kd came to 10.2 nM.
Consider CIVNKFMSF, for which the Kd in the assay with HLA-B*08:01 (setting [7]) worked out at 60.4 nM.
ILYVSCNPA: the Kd with HLA-A*03:01 [3] worked out at 402 nM; in the assay with HLA-A*69:01 (source organism: Pasteurella multocida), 572 nM; with HLA-B*15:01 it was 748 nM; with HLA-B*58:01, 572 nM.
On to KEEYVDYMPV, for which the Kd in the assay with HLA-B*40:01 (setting [9]) was found to be 68.7 nM.
On to KTIFLSEPY, for which, in the assay with HLA-A*32:01 (setting [7]), the Kd is 2.9 nM.
On the same count and under the same terms, then ITYEKSNNI, with 17.5 nM.
In the case of EQMAPHHKIL, the Kd with HLA-B*08:01 (setting [9]) amounted to 59.7 nM.
TLVGVVVST yielded an IC50 in the assay with HLA-A*02:01 [1] (source organism: Vaccinia virus) of 55400 nM.
Turning to STFNRFTIV, in the assay with HLA-B*08:01 (setting [7]), the Kd amounted to 1730 nM.
SLNLRIKIL: the Kd in the assay with HLA-B*08:01 (setting [7]) stood at 92 nM.
For DLAAGVDVV, the Kd with HLA-A*02:01 [2] (setting [10]) turned out to be 3240 nM; with HLA-A*69:01 (setting [10]), 1460 nM.
For the sequence LAKLTEAIT, in the assay with HLA-A*02:01 [1] (setting [6]), the IC50 is 68400 nM.
Regarding FTNAGIVAY, in the assay with HLA-A*32:01 (setting [7]), the Kd came to 149 nM.
For the sequence SNKRHRPIG, the dissociation constant Kd with HLA-B*08:01 (setting [7]) is 33.5 nM.
With KEISSMLNIM, in the assay with HLA-B*40:01 (setting [5]), the Kd worked out at 11.1 nM.
For the sequence KLDISEATQ, the IC50 with HLA-A*02:01 [1] (setting [6]) was no less than 96700 nM.
Take QFLLQLNET: the IC50 with HLA-A*02:01 [1] (setting [6]) worked out at 16100 nM.
MGLDKGWPIS: in the assay with HLA-A*32:01 (setting [5]), the Kd worked out at 10100 nM.
Regarding STGNYNYKY, the Kd is 388 nM in the assay with HLA-A*01:01 (setting [11]); no less than 20400 nM with HLA-A*03:01 [4]; 198 nM with HLA-A*11:01; no less than 77800 nM with HLA-A*23:01 (setting [11]); no less than 77600 nM with HLA-A*24:02 (setting [11]); 15600 nM in the assay with HLA-A*26:01 (setting [11]). Also, the Kd was 37.2 nM with HLA-A*29:02 (setting [11]); 24.5 nM in the assay with HLA-A*30:02 (setting [11]); no less than 77900 nM with HLA-A*31:01; no less than 77700 nM in the assay with HLA-A*33:01; 1600 nM in the assay with HLA-A*68:01.
Take NIMPLFPTF: the dissociation constant (Kd) with HLA-B*08:01 (setting [7]) worked out at 48.1 nM.
Still for that read-out and setting: then SVYKHRLIV, with 108 nM.
On to SIKMKLVSI, for which the equilibrium dissociation constant (Kd) in the assay with HLA-B*08:01 (source organism: Vaccinia virus Copenhagen) is 16.4 nM.
On to RILFRKPSL, for which, in the assay with HLA-B*08:01 (setting [7]), the Kd is 32.2 nM.
Regarding RVRFFFPSL, the IC50 with HLA-A*02:01 [1] (source organism: Homo sapiens) was no less than 200000 nM.
For the sequence ITQFETYQL, in the assay with HLA-A*32:01 (setting [12]), the Kd was 1630 nM.
For HKQWFLDLPL, the Kd with HLA-B*08:01 (setting [5]) was found to be 57 nM.
Take ATIQRFSSL: in the assay with HLA-B*08:01 (setting [7]), the Kd amounted to 3.34 nM.
Regarding GTFKKSGAI, in the assay with HLA-A*32:01 (setting [12]), the Kd was 4930 nM.
Consider KCWLVSNGSY, for which the Kd with HLA-A*01:01 (setting [13]) is 11500 nM; with HLA-A*23:01 (setting [13]), no less than 70000 nM; with HLA-A*24:02 (setting [13]), no less than 70300 nM; in the assay with HLA-A*26:01 (setting [13]), no less than 69700 nM; in the assay with HLA-A*29:02 (setting [13]), 1530 nM; in the assay with HLA-A*30:02 (setting [13]), 11.4 nM.
